Source: PMC8173005

Columns and labels:
[1] = molecular target: staphylococcal protein A ligand of the BabyBio A column (Bio-Works) (staphylococcal (so in the source)); assay: affinity chromatography; dynamic binding capacity at 10% breakthrough; 1 mL columns of peptide-coupled agarose or BabyBio A; 1 mg/mL infliximab in 0.01% PBST pH 7.4 loaded at 0.5 mL/min; elution with 20 mM glycine-HCl pH 3.0 (peptide resins) or 100 mM Na-citrate pH 3.0 (BabyBio A)
[2] = molecular target: polyclonal human IgG (Octagam, Octapharma) (human); assay: ELISA; phage ELISA; MaxiSorp wells coated with human polyclonal IgG (Octagam, 5 µg/mL), blocked with skimmed milk; peptide-displaying phagemid virions in solution, 2 × 10^9 virions per well or serial dilutions from 2.5 × 10^10 to 1.95 × 10^8 virions per well; detection with HRP-conjugated anti-M13 antibody and TMB; triplicate

How did the amount of infliximab in the eluate [1] turn out when “infliximab (Remsima, Celltrion) (antibody)” was run?
Its amount of infliximab in the eluate is 41.2 mg.

What about the dynamic binding capacity at 10% breakthrough [1] of the same molecule?
Its dynamic binding capacity at 10% breakthrough is 41.3 mg/mL.

For GSYWYNVWF [peptide A displayed on pIT2-SL phagemid virions], which fold higher estimated affinity than the parent peptide min19Fc-Q6D [2] is on record?
Its fold higher estimated affinity than the parent peptide min19Fc-Q6D is 16 fold.
